From US20110229941

Target: T1, crotonyl-S-SfaO (N-terminal 6x His-tagged free acyl carrier protein SfaO carrying a crotonyl thioester)
T1 chain: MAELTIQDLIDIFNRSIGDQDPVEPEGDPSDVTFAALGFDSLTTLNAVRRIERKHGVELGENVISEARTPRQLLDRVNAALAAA

B1: N-terminal 6x His-tagged SfaR (crotonyl-CoA reductase) (protein)
chain: VNEILSAVLSAEATAADFAALPLPESYRAITVHKDETEMFTGVGPADKDPRKSLHLDEVPVPELGPGEALVAVMASSVNYNSVWSSIFEPLPTFAFLERYGRRGELAKRHDLPYHVIGSDLAGVVLRTGPGVQAWKPGDEVVAHCLSVELESSDGHDDTMMDPEQRIWGFETNFGGLAELALVKSNQLMPKPRHLTWEEAAAPGLVNSTAYRQLVSRNGAQMKQGDNVLIWGASGGLGSYATQLALAGGANPVCVVSTPQKAAICRSMGAEAVIDRDAEDYRFWRDGNTQDPREWKRFGKRIRELTGGEDVDIVFEHPGRETFGASVFVARKGGTIVTCASTSGYEHQYDNRYLWMSLKRIIGSHFANYREAWEANRLVAKGRIHPTLSKVYPLEETGQAAFDVYGNVHHGKVGVLGLAPTEGLGVRDEEMRARHVGAINRFRPSAEPQTEPV
Q: For B1, which “activity of SfaR (reduction / reductive carboxylation) with crotonyl-S-SfaO as the substrate” value is on record?
A: The value was “failed to detect any activity of SfaR”.
